The source of these data is patent publication US20230056252A1 (Gilead, published 2023).

Assay [1] deals with T1, biotinylated Human CD3E and CD3D (Acro Biosystems Cat CDD-H82W1) (human, UniProt P07766 23-126; P04234 22-105).
T1 construct: also called biotinylated CD3
Nature of the assay: SPR (Biacore 4000), CD3 captured on streptavidin chip.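 Note: bispecific antibodies or Fabs injected at several concentrations over CD3 surfaces of varying density, sensorgrams fitted with a simple kinetic model to obtain association, dissociation and equilibrium constants.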 For orientation: In SPR one partner is held on a chip, and binding of the other changes the refractive index at the surface.

Assay [2] deals with T2, biotinylated CD3 epsilon:delta heterodimer protein (Amsbio AMS.CDD-H52WO) (Homo sapiens (Human), UniProt P07766 23-126; P04234 22-105).
T2 construct: also called CD3 heterodimer
The assay is described as follows: BLI (Octet), CD3 on SA sensor, bispecific analyte.

B1: hCD4D1.22 Fc AAS + W + YTE/huSP34.39.13 AAS + SAV + R (bispecific antibody, human IgG1, lambda, L234A L235A)
chain: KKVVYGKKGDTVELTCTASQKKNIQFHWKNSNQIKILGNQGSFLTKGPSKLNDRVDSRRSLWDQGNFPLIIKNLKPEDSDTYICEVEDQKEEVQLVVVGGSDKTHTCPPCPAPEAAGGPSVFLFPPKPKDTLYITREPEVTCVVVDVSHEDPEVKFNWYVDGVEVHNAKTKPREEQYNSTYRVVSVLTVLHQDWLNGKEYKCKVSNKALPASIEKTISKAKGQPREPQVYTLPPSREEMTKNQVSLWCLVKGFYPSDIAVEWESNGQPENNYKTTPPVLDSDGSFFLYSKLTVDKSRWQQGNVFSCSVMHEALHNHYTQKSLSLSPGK
heavy: EVQLVESGGGLVQPGGSLRLSCAASGFTFNTYAMNWVRQAPGKGLEWVGRIRSKYNNYATYYADSVKSRFTISRDDSKNSLYLEMNSLRTEDTAVYYCVRHGNFGHSYVSWFAYWGQGTLVTVSSASTKGPSVFPLAPSSKSTSGGTAALGCLVKDYFPEPVTVSWNSGALTSGVHTFPAVLQSSGLYSLSSVVTVPSSSLGTQTYICNVNHKPSNTKVDKKVEPKSCDKTHTCPPCPAPEAAGGPSVFLFPPKPKDTLMISRTPEVTCVVVDVSHEDPEVKFNWYVDGVEVHNAKTKPREEQYNSTYRVVSVLTVLHQDWLNGKEYKCKVSNKALPASIEKTISKAKGQPREPQVYTLPPSREEMTKNQVSLSCAVKGFYPSDIAVEWESNGQPENNYKTTPPVLDSDGSFFLVSKLTVDKSRWQQGNVFSCSVMHEALHNRYTQKSLSLSPGK
light: QAVVTQEPSLTVSPGGTVTLTCGSSTGAVTTGHYANWVQQKPGQAPRGLIGGTSNRAPGVPARFSGSLLGGKAALTISGAQPEDEAEYYCALWYSNRWVFGGGTKLTVLGQPKAAPSVTLFPPSSEELQANKATLVCLISDFYPGAVTVAWKADSSPVKAGVETTTPSKQSNNKYAASSYLSLTPEQWKSHRSYSCQVTHEGSTVEKTVAPTECS
notes: also called 180; bispecific 180
The term Kd denotes the equilibrium constant for the complex coming apart. Lower therefore signals a tighter complex. The koff is the first-order rate constant of dissociation. A lower koff goes with a long-lived complex. As a reminder, the kon is the second-order rate constant of association. Low values mean slower complex formation, high ones faster complex formation. In assay [1], B1 yielded a Kd of 2.5 nM, a koff of 0.0049 s⁻¹ and a kon of 2e+06 M⁻¹ s⁻¹.

B2: hCD4D1.22 Fc AAS + W + YTE/huSP34.40.13 AAS + SAV + R (bispecific antibody, human IgG1, lambda, L234A L235A)
chain: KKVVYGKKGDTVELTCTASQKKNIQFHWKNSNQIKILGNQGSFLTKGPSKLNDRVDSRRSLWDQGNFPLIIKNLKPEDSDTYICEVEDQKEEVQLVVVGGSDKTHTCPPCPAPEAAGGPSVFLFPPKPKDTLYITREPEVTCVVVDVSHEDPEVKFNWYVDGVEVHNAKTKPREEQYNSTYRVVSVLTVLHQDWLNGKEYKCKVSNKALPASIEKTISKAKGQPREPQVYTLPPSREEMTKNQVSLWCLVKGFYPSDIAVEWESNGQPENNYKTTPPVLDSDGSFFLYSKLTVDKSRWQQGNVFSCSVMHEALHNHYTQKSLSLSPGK
heavy: EVQLVESGGGLVQPGGSLRLSCAASGFTFNTYAMNWVRQAPGKGLEWVGRIRSKYNNYAAYYADSVKSRFTISRDDSKNSLYLQMNSLRTEDTAVYYCVRHGNFGHSYVSWFAYWGQGTLVTVSSASTKGPSVFPLAPSSKSTSGGTAALGCLVKDYFPEPVTVSWNSGALTSGVHTFPAVLQSSGLYSLSSVVTVPSSSLGTQTYICNVNHKPSNTKVDKKVEPKSCDKTHTCPPCPAPEAAGGPSVFLFPPKPKDTLMISRTPEVTCVVVDVSHEDPEVKFNWYVDGVEVHNAKTKPREEQYNSTYRVVSVLTVLHQDWLNGKEYKCKVSNKALPASIEKTISKAKGQPREPQVYTLPPSREEMTKNQVSLSCAVKGFYPSDIAVEWESNGQPENNYKTTPPVLDSDGSFFLVSKLTVDKSRWQQGNVFSCSVMHEALHNRYTQKSLSLSPGK
light: QAVVTQEPSLTVSPGGTVTLTCGSSTGAVTTGHYANWVQQKPGQAPRGLIGGTSNRAPGVPARFSGSLLGGKAALTISGAQPEDEAEYYCALWYSNRWVFGGGTKLTVLGQPKAAPSVTLFPPSSEELQANKATLVCLISDFYPGAVTVAWKADSSPVKAGVETTTPSKQSNNKYAASSYLSLTPEQWKSHRSYSCQVTHEGSTVEKTVAPTECS
notes: also called 188; bispecific 188
In assay [1], B2 registered a Kd of 1.6 nM, a koff of 0.0036 s⁻¹ and a kon of 2.2e+06 M⁻¹ s⁻¹.

B3: hCD4D1.22 Fc AAS + W + YTE/huSP34.41.13 AAS + SAV + R (bispecific antibody, human IgG1, lambda, L234A L235A)
chain: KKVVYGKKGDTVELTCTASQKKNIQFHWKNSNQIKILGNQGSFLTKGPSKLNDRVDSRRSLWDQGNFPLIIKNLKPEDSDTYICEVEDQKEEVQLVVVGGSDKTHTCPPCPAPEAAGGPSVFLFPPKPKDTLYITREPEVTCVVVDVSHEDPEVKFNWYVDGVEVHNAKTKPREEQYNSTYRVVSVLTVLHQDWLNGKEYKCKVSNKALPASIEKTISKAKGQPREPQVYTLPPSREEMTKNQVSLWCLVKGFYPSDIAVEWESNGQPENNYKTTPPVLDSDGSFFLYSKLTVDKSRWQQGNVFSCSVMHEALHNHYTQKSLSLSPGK
heavy: EVQLVESGGGLVQPGGSLSLSCAASGFTFNTYAMNWVRQAPGKGLEWVGRIRSKYNNYATYYADSVKSRFTISRDDSKNSLYLQMNSLRTEDTAVYYCVRHGNFGHSYVSWFAYWGQGTLVTVSSASTKGPSVFPLAPSSKSTSGGTAALGCLVKDYFPEPVTVSWNSGALTSGVHTFPAVLQSSGLYSLSSVVTVPSSSLGTQTYICNVNHKPSNTKVDKKVEPKSCDKTHTCPPCPAPEAAGGPSVFLFPPKPKDTLMISRTPEVTCVVVDVSHEDPEVKFNWYVDGVEVHNAKTKPREEQYNSTYRVVSVLTVLHQDWLNGKEYKCKVSNKALPASIEKTISKAKGQPREPQVYTLPPSREEMTKNQVSLSCAVKGFYPSDIAVEWESNGQPENNYKTTPPVLDSDGSFFLVSKLTVDKSRWQQGNVFSCSVMHEALHNRYTQKSLSLSPGK
light: QAVVTQEPSLTVSPGGTVTLTCGSSTGAVTTGHYANWVQQKPGQAPRGLIGGTSNRAPGVPARFSGSLLGGKAALTISGAQPEDEAEYYCALWYSNRWVFGGGTKLTVLGQPKAAPSVTLFPPSSEELQANKATLVCLISDFYPGAVTVAWKADSSPVKAGVETTTPSKQSNNKYAASSYLSLTPEQWKSHRSYSCQVTHEGSTVEKTVAPTECS
In the case of B3, in assay [1], the Kd was found to be 2 nM, the koff was found to be 0.0047 s⁻¹ and the kon came to 2.4e+06 M⁻¹ s⁻¹.

B4: hPGT121.66 AAS + W/huSP34.3.8 scFv AAS + SAV + R (bispecific antibody, human IgG1, lambda, L234A L235A)
chain: EVQLVESGGGLVQPGGSLRLSCAASGFTFNTYAMNWVRQAPGKGLEWVGRIRSKYNNYATYYADSVKGRFTISRDDSKNSLYLQMNSLRTEDTAVYYCVRHGNFGHSYVSWFAYWGQGTLVTVSSGGGGSGGGGSGGGGSGGGGSQAVVTQEPSLTVSPGGTVTLTCGSSTGAVTTGHYANWVQQKPGQAPRGLIGGTNKRAPGVPARFSGSLLGGKAALTISGAQPEDEAEYYCALWYSNRWVFGGGTKLTVLEPKSSDKTHTCPPCPAPEAAGGPSVFLFPPKPKDTLMISRTPEVTCVVVDVSHEDPEVKFNWYVDGVEVHNAKTKPREEQYNSTYRVVSVLTVLHQDWLNGKEYKCKVSNKALPASIEKTISKAKGQPREPQVYTLPPSREEMTKNQVSLSCAVKGFYPSDIAVEWESNGQPENNYKTTPPVLDSDGSFFLVSKLTVDKSRWQQGNVFSCSVMHEALHNRYTQKSLSLSPGK
heavy: QMQLQESGPGLVKPSETLSLTCSVSGASISDSYWSWIRRSPGKGLEWIGYVHKSGDTNYNPSLKSRVHLSLDTSKNQVSLSLTGVTAADSGKYYCARTLHGRRIYGIVAFNEWFTYFYMDVWGTGTQVTVSSASTKGPSVFPLAPSSKSTSGGTAALGCLVKDYFPEPVTVSWNSGALTSGVHTFPAVLQSSGLYSLSSVVTVPSSSLGTQTYICNVNHKPSNTKVDKKVEPKSCDKTHTCPPCPAPEAAGGPSVFLFPPKPKDTLMISRTPEVTCVVVDVSHEDPEVKFNWYVDGVEVHNAKTKPREEQYNSTYRVVSVLTVLHQDWLNGKEYKCKVSNKALPASIEKTISKAKGQPREPQVYTLPPSREEMTKNQVSLWCLVKGFYPSDIAVEWESNGQPENNYKTTPPVLDSDGSFFLYSKLTVDKSRWQQGNVFSCSVMHEALHNHYTQKSLSLSPGK
light: not shown
As for B4, in assay [1], the Kd turned out to be 2.5 nM, the koff stood at 0.0071 s⁻¹ and the kon amounted to 2.8e+06 M⁻¹ s⁻¹. In assay [2], this molecule showed a Kd of 7.1 nM, a koff of 0.000475 s⁻¹ and a kon of 66600 M⁻¹ s⁻¹.

B5: hPGT121.66 AAS + W/huSP34.13.8 scFv AAS + SAV + R (bispecific antibody, human IgG1, lambda, L234A L235A)
chain: EVQLVESGGGLVQPGGSLRLSCAASGFTFSTYAMNWVRQAPGKGLEWVGRIRSKYNNYATYYAASVKGRFTISRDDSKNTLYLQMNSLRTEDTAVYYCVRHGNFGHSYVSWFAYWGQGTLVTVSSGGGGSGGGGSGGGGSGGGGSQAVVTQEPSLTVSPGGTVTLTCGSSTGAVTTGHYANWVQQKPGQAPRGLIGGTNKRAPGVPARFSGSLLGGKAALTISGAQPEDEAEYYCALWYSNRWVFGGGTKLTVLEPKSSDKTHTCPPCPAPEAAGGPSVFLFPPKPKDTLMISRTPEVTCVVVDVSHEDPEVKFNWYVDGVEVHNAKTKPREEQYNSTYRVVSVLTVLHQDWLNGKEYKCKVSNKALPASIEKTISKAKGQPREPQVYTLPPSREEMTKNQVSLSCAVKGFYPSDIAVEWESNGQPENNYKTTPPVLDSDGSFFLVSKLTVDKSRWQQGNVFSCSVMHEALHNRYTQKSLSLSPGK
heavy: QMQLQESGPGLVKPSETLSLTCSVSGASISDSYWSWIRRSPGKGLEWIGYVHKSGDTNYNPSLKSRVHLSLDTSKNQVSLSLTGVTAADSGKYYCARTLHGRRIYGIVAFNEWFTYFYMDVWGTGTQVTVSSASTKGPSVFPLAPSSKSTSGGTAALGCLVKDYFPEPVTVSWNSGALTSGVHTFPAVLQSSGLYSLSSVVTVPSSSLGTQTYICNVNHKPSNTKVDKKVEPKSCDKTHTCPPCPAPEAAGGPSVFLFPPKPKDTLMISRTPEVTCVVVDVSHEDPEVKFNWYVDGVEVHNAKTKPREEQYNSTYRVVSVLTVLHQDWLNGKEYKCKVSNKALPASIEKTISKAKGQPREPQVYTLPPSREEMTKNQVSLWCLVKGFYPSDIAVEWESNGQPENNYKTTPPVLDSDGSFFLYSKLTVDKSRWQQGNVFSCSVMHEALHNHYTQKSLSLSPGK
light: not shown
notes: also called 261; bispecific 261
In assay [2], B5 displayed a Kd of 20.8 nM, a koff of 0.000947 s⁻¹ and a kon of 48500 M⁻¹ s⁻¹.

B6: hPGT121.66 AAS + W/huSP34.34.11 scFv AAS + SAV + R (bispecific antibody, human IgG1, lambda, L234A L235A)
chain: EVQLVESGGGLVQPGGSLRLSCAASGFTFNTYAMNWVRQAPGKGLEWVGRIRSKYNNYATYYAASVKGRFTISRDDSKNSLYLQMNSLKTEDTAMYYCVRHGNFGHSYVSWFAYWGQGTLVTVSSGGGGSGGGGSGGGGSGGGGSQAVVTQEPSLTVSPGGTVTLTCGSSTGAVTTGHYANWVQQKPGQAPRGLIGGTNKRAPGVPARFSGSLLGGKAALTLSGAQPEDEAEYYCALWYSNLWVFGGGTKLTVLEPKSSDKTHTCPPCPAPEAAGGPSVFLFPPKPKDTLMISRTPEVTCVVVDVSHEDPEVKFNWYVDGVEVHNAKTKPREEQYNSTYRVVSVLTVLHQDWLNGKEYKCKVSNKALPASIEKTISKAKGQPREPQVYTLPPSREEMTKNQVSLSCAVKGFYPSDIAVEWESNGQPENNYKTTPPVLDSDGSFFLVSKLTVDKSRWQQGNVFSCSVMHEALHNRYTQKSLSLSPGK
heavy: QMQLQESGPGLVKPSETLSLTCSVSGASISDSYWSWIRRSPGKGLEWIGYVHKSGDTNYNPSLKSRVHLSLDTSKNQVSLSLTGVTAADSGKYYCARTLHGRRIYGIVAFNEWFTYFYMDVWGTGTQVTVSSASTKGPSVFPLAPSSKSTSGGTAALGCLVKDYFPEPVTVSWNSGALTSGVHTFPAVLQSSGLYSLSSVVTVPSSSLGTQTYICNVNHKPSNTKVDKKVEPKSCDKTHTCPPCPAPEAAGGPSVFLFPPKPKDTLMISRTPEVTCVVVDVSHEDPEVKFNWYVDGVEVHNAKTKPREEQYNSTYRVVSVLTVLHQDWLNGKEYKCKVSNKALPASIEKTISKAKGQPREPQVYTLPPSREEMTKNQVSLWCLVKGFYPSDIAVEWESNGQPENNYKTTPPVLDSDGSFFLYSKLTVDKSRWQQGNVFSCSVMHEALHNHYTQKSLSLSPGK
light: not shown
In assay [1], B6 displayed a Kd of 3.9 nM, a koff of 0.0129 s⁻¹ and a kon of 3.3e+06 M⁻¹ s⁻¹. In assay [2], this molecule gave a Kd of 16 nM, a koff of 0.00172 s⁻¹ and an on-rate constant (kon) of 116000 M⁻¹ s⁻¹.

B7: hPGT121.66 AAS + W/huSP34.34.3 scFv AAS + SAV + R (bispecific antibody, human IgG1, lambda, L234A L235A)
chain: not shown
heavy: QMQLQESGPGLVKPSETLSLTCSVSGASISDSYWSWIRRSPGKGLEWIGYVHKSGDTNYNPSLKSRVHLSLDTSKNQVSLSLTGVTAADSGKYYCARTLHGRRIYGIVAFNEWFTYFYMDVWGTGTQVTVSSASTKGPSVFPLAPSSKSTSGGTAALGCLVKDYFPEPVTVSWNSGALTSGVHTFPAVLQSSGLYSLSSVVTVPSSSLGTQTYICNVNHKPSNTKVDKKVEPKSCDKTHTCPPCPAPEAAGGPSVFLFPPKPKDTLMISRTPEVTCVVVDVSHEDPEVKFNWYVDGVEVHNAKTKPREEQYNSTYRVVSVLTVLHQDWLNGKEYKCKVSNKALPASIEKTISKAKGQPREPQVYTLPPSREEMTKNQVSLWCLVKGFYPSDIAVEWESNGQPENNYKTTPPVLDSDGSFFLYSKLTVDKSRWQQGNVFSCSVMHEALHNHYTQKSLSLSPGK
light: not shown
As for B7, in assay [1], the Kd is 43 nM, the koff came to 0.017 s⁻¹ and the on-rate (kon) was 390000 M⁻¹ s⁻¹. Further, in assay [2], the affinity, expressed as Kd, was 10.3 nM; the koff was found to be 0.00619 s⁻¹; the kon worked out at 620000 M⁻¹ s⁻¹.
